Test: soluble on expression in E. coli; label from the status in PepcDB or PDB records

Row | Sequence | soluble on expression in E. coli
1 | RMASVWQRLGFYASLLKRQLNGGPDVIKWERRVIPGCTRSIYSATGKWTKEYTLQTRKDVEKWWHQRIKEQASKISEADKSKPKFYVLSMFPYPSGKLHMGHVRVYTISDTIARFQKMRGMQVINPMGWDAFGLPAENAAVERNLHPQSWTQSNIKHMRKQLDRLGLCFSWDREITTCLPDYYKWTQYLFIKLYEAGLAYQKEALVNWDPVDQTVLANEQVDEHGCSWRSGAKVEQKYLRQWFIKTTAYAKAMQDALADLPEWYGIKGMQAHWIGDCVGCHLDFTLKVHGQATGEKLTAYTATPEAIYGTSHVAISPSHRLLHGHSSLKEALRMALVPGKDCLTPVMAVNMLTQQEVPVVILAKADLEGSLDSKIGIPSTSSEDTILAQTLGLAYSEVIETLPDGTERLSSSAEFTGMTRQDAFLALTQKARGKRVGGDVTSDKLKDWLISRQRYWGTPIPIVHCPVCGPTPVPLEDLPVTLPNIASFTGKGGPPLAMASEWVNCSCPRCKGAAKRETDTMDTFVDSAWYYFRYTDPHNPHSPFNTAVADYWMPVDLYIGGKEHAVMHLFYARFFSHFCHDQKMVKHREPFHKLLAQGLIKGQTFRLPSGQYLQREEVDLTGSVPVHAKTKEKLEVTWEKMSKSKHNGVDPEEVVEQYGIDTIRLYILFAAPPEKDILWDVKTDALPGVLRWQQRLWTLTTRFIEARASGKSPQPQLLSNKEKAEARKLWEYKNSVISQVTTHFTEDFSLNSAISQLMGLSNALSQASQSVILHSPEFEDALCALMVMAAPLAPHVTSEIWAGLALVPRKLCAHYTWDASVLLQAWPAVDPEFLQQPEVVQMAVLINNKACGKIPVPQQVARDQDKVHEFVLQSELGVRLLQGRSIKKSFLSPRTALINFLVQD | soluble
2 | RPDKVKLALDKTSYRAGDTLKVTITPPHPGKGLLLVESDKPLYVQAIDANPSTTLEIPVTADWERHDVYVTALVFRGGSASNNTTPARAVGEAYVPMQRKERRVAVGLVVPKQVRPAQSLPVTVSVPELAGKQAHVTISAVDAGILNITGF | not soluble
3 | RQAVGPGGVPAGAGGSGAVLGPEAAGPEREEPECGSSGGGMSRPPPTGKMPGAPETAPGDGAGASRQRKLEALIRDPRSPINVESLLDGLNSLVLDLDFPALRKNKNIDNFLNRYEKIVKKIRGLQMKAEDYDVVKVIGRGAFGEVQLVRHKASQKVYAMKLLSKFEMIKRSDSAFFWEERDIMAFANSPWVVQLFYAFQDDRYLYMVMEYMPGGDLVNLMSNYDVPEKWAKFYTAEVVLALDAIHSMGLIHRDVKPDNMLLDKHGHLKLADFGTCMKMDETGMVHCDTAVGTPDYISPEVLKSQGGDGFYGRECDWWSVGVFLYEMLVGDTPFYADSLVGTYSKIMDHKNSLCFPEDAEISKHAKNLICAFLTDREVRLGRNGVEEIRQHPFFKNDQWHWDNIRETAAPVVPELSSDIDSSNFDDIEDDKGDVETFPIPKAFVGNQLPFIGFTYYRENLLLSDSPSCRENDSIQSRKNEESQEIQKKLYTLEEHLSNEMQAKEELEQKCKSVNTRLEKTAKELEEEITLRKSVESALRQLEREKALLQHKNAEYQRKADHEADKKRNLENDVNSLKDQLEDLKKRNQNSQISTEKVNQLQRQLDETNALLRTESDTAARLRKTQAESSKQIQQLESNNRDLQDKNCLLETAKLKLEKEFINLQSALESERRDRTHGSEIINDLQGRICGLEEDLKNGKILLAKVELEKRQLQERFTDLEKEKSNMEIDMTYQLKVIQQSLEQEEAEHKATKARLADKNKIYESIEEAKSEAMKEMEKKLLEERTLKQKVENLLLEAEKRCSLLDCDLKQSQQKINELLKQKDVLNEDVRNLTLKIEQETQKRCLTQNDLKMQTQQVNTLKMSEKQLKQENNHLMEMKMNLEKQNAELRKERQDADGQMKELQDQLEAEQYFSTLYKTQVRELKEECEEKTKLGKELQQKKQELQDERDSLAAQLEITLTKADSEQLARSIAEEQYSDLEKEKIMKELEIKEMMARHKQELTEKDATIASLEETNRTLTSDVANLANEKEELNNKLKDVQEQLSRLKDEEISAAAIKAQFEKQLLTERTLKTQAVNKLAEIMNRKEPVKRGNDTDVRRKEKENRKLHMELKSEREKLTQQMIKYQKELNEMQAQIAEESQIRIELQMTLDSKDSDIEQLRSQLQALHIGLDSSSIGSGPGDAEADDGFPESRLEGWLSLPVRNNTKKFGWVKKYVIVSSKKILFYDSEQDKEQSNPYMVLDIDKLFHVRPVTQTDVYRADAKEIPRIFQILYANEGESKKEQEFPVEPVGEKSNYICHKGHEFIPTLYHFPTNCEACMKPLWHMFKPPPALECRRCHIKCHKDHMDKKEEIIAPCKVYYDISTAKNLLLLANSTEEQQKWVSRLVKKIPKKPPAPDPFARSSPRTSMKIQQNQSIRRPSRQLAPNKPS | soluble
4 | RQLKVGQLVLSATPLPSLDEQARSLALVNLVRRKGIELLPWNPELRQWQARVDMLRQLDIQNGQAESKWPDLSDTSLLETLEK | not soluble
5 | RRHKNKNPFHFNSKRFQTLFKNQYGHVRVLQRFNKRSQQLQNLRDYRILEFNSKPNTLLLPHHADADYLIVILNGTAILTLVNNDDRDSYNLQSGDALRVPAGTTYYVVNPDNDENLRMITLAIPVNKPGRFESFFLSSTQAQQSYLQGFSKNILEASYDTKFEEINKVLFGREEGQQQGEERLQESVIVEISKKQIRELSKHAKSSSRKTISSEDKPFNLRSRDPIYSNKLGKLFEITPEKNPQLRDLDVFLSVVDMNEGALFLPHFNSKAIVVLVINEGEANIELVGIKEQQQRQQQEEQPLEVRKYRAELSEQDIFVIPAGYPVVVNATSDLNFFAFGINAENNQRNFLAGSKDNVISQIPSQVQELAFPGSAKDIENLIKSQSESYFVDAQPQQKEEGNKGRKGPLSSILRAFY | soluble
6 | RSSLDLQLKNARNLAGLIIHDIDGYMMKGDSSEVDRFISAVKSKNFIMDLRVFDEQAKEVSPTPSQTPNAKIQQAIAAGRTLEFKETLDGKRTLSLVLPFPNEQRCQSCHDAGAAYLGGLLVTTSIEEGYEGARH | soluble
7 | RTGFSVGAGVEYNFSRHWAIQSGLMITSKGATAEYEGYSPLSSSTDPISYKAKISPIYLDIPILAAFKIDISNHVKFAINIGPYLSVGMGGKYELTNTGGHKNESHNPFKSYSSTAEMKDKDALLKRFDIGVQGGIGFEIWKHYLINASFQHGFMDPIKGGTLYAGDTEKHYPIGGILTVGYRF | not soluble
8 | RVMLRQTQYLNEAIKLMASKNLSVPFGMDCKDEYGDVARELEKTRRQLHDVIQMQINASDELATLTEVMTLSMSETKESA | not soluble
9 | RYPTNNFGNCTGCSATFSVLKKRRSCSNCGNSFCSRCCSFKVPKSSMGATAPEAQRETVFVCASCNQTLSK | soluble
10 | SAAANPWDPASAPNGAGLVLGHFIASGMVNQEMLNMSKKTVSCFVNFTRLQQITNIQAEIYQKNLEIELLKLEKDTADVVHPFFLAQKCHTLQSMNNHLEAVLKEKRSLRQRLLKPMCQENLPIEAVYHRYMVHLLELAVTFIERLETHLETIRNIPHLAANLKKMNQALAKMDILVTETEELAENILKWRKQQNEVSSCIPKILAEESYLYKHDIIMPPLPFTSKVHVQTINAK | soluble
11 | SAAQKINEGLEHLAKAEKYLKTGFLKWKPDYDSAASEYGKAAVAFKNAKQFEQAKDACLREAVAHENNRALFHAAKAYEQAGMMLKEMQKLPEAVQLIEKASMMYLENGTPDTAAMALERAGKLIENVDPEKAVQLYQQTANVFENDERLRQAVELLGKASRLLVRGRRFDEAALSIQKEKNIYKEIENYPTCYKKTIAQVLVHLHRNDYVAAERCVRESYSIPGFNGSEDCAALEQLLEGYDQQDQDQVSDVCNSPLFKYMDNDYAKLGLSLVVPGGGIKKKSPATPQAKPDGVTATAADEEEDEYSGGLC | soluble
12 | SAHSKTRTNDGKITYPPGVKEISDKISKEEMVRRLKMVVKTFMDMDQDSEEEKELYLNLALHLASDFFLKHPDKDVRLLVACCLADIFRIYAPEAPYTSPDKLKASTDLNNSKIDRYFDLSF | soluble
13 | SAQDVDECSLGANPCEHAGKCINTLGSFECQCLQGYTGPRCEIDVNECVSNPCQNDATCLDQIGEFQCICMPGYEGVHCEVNTDECASSPCLHNGRCLDKINEFQCECPTGFTGHLCQVDLHHILDAQKMVWNHR | soluble
14 | SAQKEEAAVATEAASQNGEDLENLDDPEKLKELIELPPFEIVTGERLPANFFKFQFRNVEYSSGRNKTFLCYVVEAQGKGGQVQASRGYLEDEHAAAHAEEAFFNTILPAFDPALRYNVTWYVSSSPCAACADRIIKTLSKTKNLRLLILVGRLFMWEEPEIQAALKKLKEAGCKLRIMKPQDFEYVWQNFVEQEEGESKAFQPWEDIQENFLYYEEKLADILK | soluble
15 | SASASTQPAALSAEQAKVVLAEVIQAFSAPENAVRMDEARDNACNDMGKMLQFVLPVATQIQQEVIKAYGFSCDGEGVLKFARLVKSYEAQDPEIASLSGKLKALFLPPMTLPPHGPAAGGSVAAS | soluble
16 | SASAVFEGTSLVNMFVRGCWVNGIRRLIVSRRGDEEEFFEIRTEWSDRSVLYLHRSFADLGRLCKRLRDAFPEDRSELARTPLRQGLLAIKGAHDIETRLNEVEKLLETVISMPCKYSRSEVVLTFFERSPLDQVLKNDNVHKIQPSFQSPVKISEAKEGTGALRTGVVDGCEPPGGCWELSVGLLEEHQVFLTAERIFSPRKAFLRNHEVQWILFGKHRDHSH | soluble
17 | SASFDGPKFKMTDGSYVQTKTIDVGSSTDISPYLSLIREDSILNGNRAVIFDVYWDVGFPETETKTKTSGWSLSSVKLSTRNLCLFLRLPKPFHDNLKDLYRFFASKFVTFVGVQIEEDLDLLRENHGLVIRNAINVGKLAAEARGTLVLEFLGTRELAHRVLWSDLGQLDSIEAKWEKAGPEEQLEAAAIEGWLIVNVWDQLSDE | soluble
18 | SASMDVEEFIGQNRQLADRVEAFRGFSESDKHWKGRREFIFRNMADFPEPQVDHLLALSMVWQNHVFMGCRYSSELLQRVMEMAEGIEVEDAPVFKTRDEIIRQQKQR | soluble
19 | SATAQLSHCITIHKASKETVFPSQITNEHESLKMVKKLFATSISCITYLRGLFPESSYGERHLDDLSLKILREDKKCPGSLHIIRWIQGCFDALEKRYLRMAVLTLYTDPMGSEKVTEMYQFKFKYTKEGATMDFDSHSSSTSFESGTNNEDIKKASVLLIRKLYILMQDLEPLPNNVVLTMKLHYYNAVTPHDYQPLGFKEGVNSHFLLFDKEPINVQVGFVSTGFHSMKVKVMTEATKVIDLENNLFRENSTTEIAHQGLDCDEEEECNDHIQRMNFVCSQQSSECSRKKRKVSEPVKVFIPNRK | soluble
20 | SDFPPTKLDYHVDMFNLQSHSRFLSLFKAQDGRIALILESTVFHPQGGGQPSDTGLIVFSGSDLKFSVQDVRSKDGIVLHYGVFEGSNPESGIDSEKGKEVYLTVDESRRKLNSRLHSAGHLLDMCMQKVGLGHLEPGKGYHFPDGPFVEYKGSVPQEEFQVKQKELEAEANELISKGGKVYAAILPYEEASVLCGGSLPDYISKGSTPRIIKLGDSPGCPCGGTHVSNLSDIISMKMRTKKGMTKVFYTIAS | soluble
21 | SDIEHILTAIAVLLEKRLDYDRGVIMMADAGGSALRVLASYGFDEAGRRVMHETPIALDGVGPRGVVAASFLDQKPFLVNDLDEINHLIPPLHRELGRRLGIRSFISCPIVCEGQSLGVLAVDTIRTG | not soluble
22 | SDKEYVGFAALPNQLHRKSVKKGFDFTLMVAGESGLGKSTLINSLFLTNLYEDRQVPEASARLTQTLAIERRGVEIEEGGVKVKLTLVDTPGFGDSVDCSDCWLPVVKFIEEQFEQYLRDESGLNRKNIQDSRVHCCLYFISPFGRGLRPLDVAFLRAVHEKVNIIPVIGKADALMPQETQALKQKIRDQLKEEEIHIYQFPECDSDEDEDFKRQDAEMKESIPFAVVGSCEVVRDGGNRPVRGRRYSWGTVEVENPHHCDFLNLRRMLVQTHLQDLKEVTHDLLYEGYRARCLQSLARPGARDRASRSKLSRQSATEIPLPMLPLADTEKLIREKDEELRRMQEMLEKMQAQMQQSQAQGEQSDAL | soluble
